From paper doi:10.1101/2020.12.04.411884 (bioRxiv, 2020)

Target: proteasome αΔ12-subunit (Thermoplasma acidophilum 20S proteasome α-subunit, first 12 residues removed) (Thermoplasma acidophilum, UniProt P25156 13-233)
Experiment: […]

Chain of proteasome αΔ12-subunit (Thermoplasma acidophilum 20S proteasome α-subunit, first 12 residues removed) (P25156 13-233, stated change not applied): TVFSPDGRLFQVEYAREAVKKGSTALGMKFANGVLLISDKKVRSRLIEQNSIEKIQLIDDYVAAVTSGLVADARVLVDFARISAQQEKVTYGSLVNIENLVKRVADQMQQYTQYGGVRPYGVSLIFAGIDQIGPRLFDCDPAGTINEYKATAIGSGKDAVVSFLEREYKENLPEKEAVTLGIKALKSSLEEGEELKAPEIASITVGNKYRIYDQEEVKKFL

B1: proteasome β-subunit (Thermoplasma acidophilum 20S proteasome) (natural protein)
chain: TTTVGITLKDAVIMATERRVTMENFIMHKNGKKLFQIDTYTGMTIAGLVGDAQVLVRYMKAELELYRLQRRVNMPIEAVATLLSNMLNQVKYMPYMVQLLVGGIDTAPHVFSIDAAGGSVEDIYASTGSGSPFVYGVLESQYSEKMTVDEGVDLVIRAISAAKQRDSASGGMIDVAVITRKDGYVQLPTDQIESRIRKLGLIL
binding result: binds
